{"source": "the nanobody polyreactivity screen of Harvey et al. (2022)"}
{"experiment": "yeast display, Sf9 membrane polyspecificity reagent, FACS + sequencing; frameworks hold sequencing errors", "method_in_brief": "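Polyreactivity labels are assigned by the sorting gate from which each nanobody was recovered. The gates were low and high (top ~1%), set on anti-HA fluorescence for expression and streptavidin fluorescence for reagent binding. Before sorting, galactose-induced (36–48 hours) yeast display cells were stained for 1 hour at 4 °C with 10% biotinylated, detergent-solubilized Sf9 membrane reagent.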"}
{"sequence": "QVQLVESGGGLVQAGGSLRLSCAASGFTFGRNAMGWYRQAPGKERELVARITTGGSTNYADSVKGRFTISRDNAKNTVYLQMNSLKPEDTAVYYCAATYRSLALFWTYGYWGQGTQVTVSS", "polyreactivity (PSR sort gate)": "low polyreactivity"}
{"sequence": "QVQLVESGGGLVQAGGSLRLSCAASGSISHLYTMGCYRQSPGKERELVAAIRYSGGRTDYADSVKGRFTISRDNAKNTVYLQMNSLKPEDTAVYYCAAGRSFRGSYWYEYWGQGTQVTVSS", "polyreactivity (PSR sort gate)": "high polyreactivity"}
{"sequence": "QVQLVESGGGLVQAGGSLRLSCAASAIIFRFYAMGWYRQAPGKERELVPAISSGGSTYYADSVKGRFTISRDNAKNTVYLQMNSLKPEDTAVYYCNARVRYKRTGRYGYWGQGTQVTVSS", "polyreactivity (PSR sort gate)": "high polyreactivity"}
{"sequence": "QVQLVESGGGLVQAGGSLRLSCAASGSTFRNYAMGWYRQAPGKERELVAAISGSGGRTNYADSVKGRFTISRDNAKNTVYLQMNSLKPEDTAVYYCNARFPDWALSEISHSTTYGYWGQGTQVTVSS", "polyreactivity (PSR sort gate)": "low polyreactivity"}
{"sequence": "QVQHVESGGGLVQAGGSLRLSCAASGNTFSANAMGWYRQAPVKEREFVASITWSGGSTYYADSVKGRFTFSRDNAKNTVYLQMNSLKPEDTAVYYCAAESWFKYDYWGQGTQVTVSS", "polyreactivity (PSR sort gate)": "low polyreactivity"}
{"sequence": "QVQLVESGGGLVQAGGSLRLSCAASGGTFGTNAMGWYRQAPGKERELVATIRTSVGSTYYADSVKGRFTISRDNAKNTVYLQMNSVKPEDTAVYYCAAGVPKNGQAGYDYWGQGTQVTVSS", "polyreactivity (PSR sort gate)": "high polyreactivity"}
{"sequence": "QVQLVESGGGLVQAGGSLRLSCAASGSTFFRYAMGWYRHAPVKERELVAAISASGGRTYYADSVKGRFTISRDNAKNTVYLLMNSLKPEDTAVYYCNRQYGPYQYYYWGQGTQVTVSS", "polyreactivity (PSR sort gate)": "high polyreactivity"}
{"sequence": "QVQLVESGGGLVQAGGSLRLSCAASGSTFGPNAMGWYRQAPGKERELVAAINTRGGSTYYADSVKGRFTISRDNAKNTVYLQMNSLKPEDTAVYYCAAEYVVWYLDRFNYWGQGTQVTVSS", "polyreactivity (PSR sort gate)": "high polyreactivity"}
{"sequence": "QVQLQESGGRQVQAGGSLRLSCAASGSNSYASGMGWYRQAPRKEREFVARIDPGAITNYADSVKGRFTISHDNAQNTVYLQMKSLKPEDNAVYYCAARVSTTDSRRILRKYLYYVHFDYWGQGTQLTVSS", "polyreactivity (PSR sort gate)": "high polyreactivity"}
{"sequence": "QVQLVESGGGLVQAGGSLRLSCAASGITFRKYAMGWYRKAPGKERELVAAISVSGGSTYYADSVKGRFTISRDNAKNTVYLQMNSLKPEDTAVYYCATGRSTDKGYYYWGQGTQVTVSS", "polyreactivity (PSR sort gate)": "high polyreactivity"}
{"sequence": "QVQLVESGGGLVQAGGSLRLSCPASGRIFYIYTMGWYRQAPGKERELVASITYNGGSTYYADSVKGRFTISRDNAKNTVYLQMNSLKPEDTAVYYCNANSRSPTYRYRSWPYNYWGQGTQVTVSS", "polyreactivity (PSR sort gate)": "high polyreactivity"}
{"sequence": "QVQLVESGGGLVQAGGSLRLSCAASGYNFGVYAMGWYRQAPGKERELVAAINGGDSTYYADSVKGRFTISRDNAKNTVYLQMNSLKPEDTAVYYCAADPYSVYGGDYWGQGTQVTVSS", "polyreactivity (PSR sort gate)": "low polyreactivity"}
{"sequence": "QVQLVESGGGLVQAGGSLRVSCADSGNILYLYAMGWYREAPGKERELVAAISGNGGRTYYADSVKGRFTISRDNAKNTVYLQMNSLKPEDTAVYDCAADYAGRRFWYYHGLDSWGQGTQVTVSA", "polyreactivity (PSR sort gate)": "high polyreactivity"}
{"sequence": "QVQLVESGGGLVQAGGSLRLSCAASGIISYLYAMGWYRQAPGKERELVAVIRTSDAITYYADSVKGRFTISRDNAKNTVYLQMNSLKPEDTAVYYCAAEDVYEYDYWGQGTQVTVSS", "polyreactivity (PSR sort gate)": "high polyreactivity"}
{"sequence": "QVQLVESGGGLVQAGGSLRLSCAASGRIFRRYTMGWYRQAPGKERELVAAITWNGGRTYYADSVKGRFTISRDNAKNTVYLQMNSLKPEDTAVYYCAARRQGGYGYDYWGQGTQVTVSS", "polyreactivity (PSR sort gate)": "high polyreactivity"}
{"sequence": "QVQLVESGGGLVQAGGSLRLSCAASGNIFAYYAMGWYRQAPGKERELVAGISRRGGNTYYADSVKGRFTISRDNAKNTVYLQMNSLKPEDTAVYYCAAKTYSGQRFDYWGQGTQVTVSS", "polyreactivity (PSR sort gate)": "high polyreactivity"}
{"sequence": "QVQLVESGGGLVQAGGSLRLSCAASGRTISVYGMGWSRQAPGKERELVASITWRGGTTYYADSVKGRFTISRDNAKNSVYLQMNRLKPEDTAVYYCAAYWPYTTYRYRYDYWGQGTQVTVSS", "polyreactivity (PSR sort gate)": "high polyreactivity"}
{"sequence": "QVQLVESGGGLVQAGGSLRLRCAASGGIINWYAMGWYRQAQGKERELVAAISWRTTSTYYADSVKGRFTISRDTAKNTVYLQMNCLKPEDTAVYYCYASGEVLAAVVTYDYWGQGTQVTVSS", "polyreactivity (PSR sort gate)": "low polyreactivity"}
{"sequence": "QDQLVEAGGGLVQAGGSLRLSCAASGFIFSRNAMGWYRQAPGKEGELVAAISSTGGITYYADSVKGRFSISRDNAKNTVYLQLTSLKPEDTAVYFCAAGFYGYARHTWYNYWGQGTQVTVSS", "polyreactivity (PSR sort gate)": "high polyreactivity"}
{"sequence": "QVQLVESGGGLDQAGGSLRLSCAASGSTFSRNAMGWYRQAPGKERELVAGISYIGGRTYYADSVKGRFTISRDNAKNTVYLQMNSLKPEDTAVYYCNVVPKSRDWQSYGSWGQGTQVTVSS", "polyreactivity (PSR sort gate)": "high polyreactivity"}
{"sequence": "QVQLVESGGGLVQAGGSLRLSCAASGRIFGYNAMGWSRQAPGKERELGAAISWSGGSTFYADSVKGRFTISRDNAKNTVYLQMNSLKPEDTAVYYCAADSQDGYYYWGQGTQVTVSS", "polyreactivity (PSR sort gate)": "low polyreactivity"}
{"sequence": "QVQLVESGGGLVQAGGSLRLSCAASGRIFRRNTMGWYRQAPGKERELVAAITSSGGSTYADSVKGRFTISRDNAKNTVYLQMNSLTPEDTAVYYCATYVAYHRGYRTYDHWGQGTHVTVSS", "polyreactivity (PSR sort gate)": "low polyreactivity"}
{"sequence": "QVQLVESGGGLVQAGGSLRLSCAASGRIFSVYVMGWYRPAPGKERELVAAISGRDGTTYYADSVKGRFTISRDNAKNTVYLQMNSLKPEDTAVYYCAAEDIDFTPMDYWGQGTQVTVSS", "polyreactivity (PSR sort gate)": "high polyreactivity"}
{"sequence": "QVQLVESGGGLVQAGGSLRLSCAASGLPFRYNVMGWYRQAPGKETALGATISTSAGDTYYADSVKGRFTISRDNAKNTVYLQMNSLKPEDTAVYYCNAEAWYSVEYDDWGQGTQVTVSS", "polyreactivity (PSR sort gate)": "low polyreactivity"}
{"sequence": "QVQLVESGGGLVQAGGSLRLSCAASGLTFIRYAMGWNRQAPGKERELVASISRGGSTYYADSVKGRFTISRDNAKNTVYLQMNSLKPEDTAVYYCAAQHVGHNYYNSGFYYWGQATQVTVSS", "polyreactivity (PSR sort gate)": "low polyreactivity"}
{"sequence": "QVQLVESGGGLVQEGGSLRLSCAASGSTFEYNAMGWDRQAPGKEREFVAAISRTGSRTYYADSVKGRFTISRDNAKNTVFLQMNSLIPEDTAVYYCASVKSRLQVGYYSWGQGTQVTVSS", "polyreactivity (PSR sort gate)": "high polyreactivity"}
{"sequence": "QVQLVESGGGLVQAGGSLRLSCAASGRIFPGNAMGWYRQAPGKEREFVAAINTRGGITYYADSVKGRFTISRDNAKNTVYLQMNSLKPEDTAVYYCARTYYPVDGEYDYWGQGTQVTVSS", "polyreactivity (PSR sort gate)": "low polyreactivity"}
{"sequence": "QVQLVESGGGLVQAGGSLRLSCAASGRIFYRNVMGWNRQAPGKERELVAAITYRTGSTYYADSVKGRFTISRDNAKNTVYLQMNSLKPEDTAVYYCNVVPRNGQTWGYEYDYWGQGTQVTVSS", "polyreactivity (PSR sort gate)": "high polyreactivity"}
{"sequence": "QVQLVESGGGLVQAGGTLRLSCAASGRTFAYNAMGWYRQAPGKERELVAAITWSGDSTYYADSVKGRFTISRDNAKKTVYLQRNSLKPEDTAVYYCAADYFGGPSYEFDYWGQGTQVTVSS", "polyreactivity (PSR sort gate)": "low polyreactivity"}
{"sequence": "QDQLVESGGGLVQAGGSLRLSCAASGSIFVHYVMGWYRQAPGKERELVAAISSRGGGTFYADSVKGRFTISRDNAKNTVYLQMNSLKPEDTAVSYCARVPYFGSGAIRDYWGQGTQVTVSS", "polyreactivity (PSR sort gate)": "high polyreactivity"}
{"sequence": "QVQLVESVGGLVQAGGSLRLSCAASGITFGRNTMGWYRQAPGKERELVAAISWNGDSTYYADSVKGRFTISRDNAKNTVYLQMNSLKPEDTAVYYCNADDVFLYQTDGLGDYWGQGTQVTVSS", "polyreactivity (PSR sort gate)": "low polyreactivity"}
{"sequence": "QVQLVESGGGLVQAGGSLRLSCAASGFIFYPYAMGWYRQAPGKERELVAVITSGGRTYYADSVKGRFTISRDNAKNTVYLQMNSLKPEDTAVYYCAAQYIQAWRLFDYWGQGTQVTVSS", "polyreactivity (PSR sort gate)": "low polyreactivity"}
{"sequence": "QVQLVESGGGLVQAGGSLRLSCAASGSIFGRYAMGWYRQAPGKERELVASITRGAGSTYYADSVKGRFTISRDNAKNTVYLQMNSLKPEDTAVYYCRLAPRYRKGGYWGQGTQVTVSS", "polyreactivity (PSR sort gate)": "high polyreactivity"}
{"sequence": "QVQLVESGGGLVQAGGSLRLSCAASGFIFPWNAMAWYRQAPRKERELVAAISFSGGSTYYADSVKGRFTISRDNAKNTVYLQMNSLKPEDTAVYYCAKRTWDLRRTRHYYWGQGTQVTVSS", "polyreactivity (PSR sort gate)": "low polyreactivity"}
{"sequence": "QVQLLESGGGLVQAGGSLRLSCAASGSIFDPYAMGWYRQAPGKERELVAVINDGGRTTYADSVKGRFTISRDNAKNTVYLQMNRLKPEDTAVYYCAATSYFSRWDLYGYWGQGTQVTVSS", "polyreactivity (PSR sort gate)": "low polyreactivity"}
{"sequence": "QVQLVESGGGLVQAGGSLRLSCAASGRTFGYYAMGWYRQAPGKERELFDAITGRTSRTYYADSVKGRFTISRDNAKNTVYLQMNSLKPEDTAVYYCAARYTRWRYNYKDYDYWGQGTQVTVSS", "polyreactivity (PSR sort gate)": "high polyreactivity"}
{"sequence": "QVQLVESGGGLVQAGGSLRLSCAASGINFRQYTMGWFRQAPGKERELVAAITSSGRTYYADSVKGRFTISRDNAKNTVYLQMNSLKPEDTAVYYCAAKGTYRGHDYWGQGTQVTVSS", "polyreactivity (PSR sort gate)": "high polyreactivity"}
{"sequence": "QVQLVESGGGLVQAGGSLRLRCAASARTFRDYAMGCYRQATGKERELVAVIDSGGGTDYADSVKGRFTISRDNAKNTVYLQMNSLKPEDTAVYYCAADSSVRYRDTEDYWGQGTQVTVSS", "polyreactivity (PSR sort gate)": "low polyreactivity"}
{"sequence": "QVQLVESGGGLVQAGGSLRLSCAASGSMFAAYAMGWYRQAPGKARELVAAISSGDGTYYADSVKGRFTISRDNAKNTVYLQRNSLKPEDTAVYYCNAYVSQRYRGSRYYYWGQGTQVTLSS", "polyreactivity (PSR sort gate)": "high polyreactivity"}
{"sequence": "QVQLVESGGGLVQAGGSLRLSCAASGRTFYSNAMGWYRQAPGKERELVAAISRSGGTTYYADSVKGRFTISRDNAKNTVYLQMNSLKPEDTAVYYCNTLRYGTTGKYDYWGQGTQVTVSS", "polyreactivity (PSR sort gate)": "high polyreactivity"}
{"sequence": "QVQLVESGGGLVQAGGSLRLSCAASGITFGYYARGGYRQAPGNERELVAAISRNGGSTYYADSVKGRFTISRDNAKNTVYLQMNSLKPEDTAVYYCNARGNQAVIGYEYWGQGTQVTVSS", "polyreactivity (PSR sort gate)": "high polyreactivity"}
{"sequence": "QVQLVESGGGLVQAGGSLRLSCAASGRTFTRYSMGWYRQAPGKERELVATINSSGDRTYYADSVKGRFTISRDNAKNTVYLQMNSLKPEDTAVYYCAKRWSPYLYGYWGKGTQVTVSS", "polyreactivity (PSR sort gate)": "high polyreactivity"}
{"sequence": "QVQLVESGGGLVQAGGSLRLSCAASGSTFASNAMGWYRQAPGKERELVAAISGSGGRTYYADSVKGRFTISRDNAKNTVYLQMNSLKQEDTAVYYCAADWVRRYNYWGQGTQVTVSS", "polyreactivity (PSR sort gate)": "high polyreactivity"}
